Biological target: Inactivated influenza H5N1, Ck HK Yu22/02 (Influenza A virus Ck/HK/Yu22/02 (H5N1))
Test: cell-based or functional assay

B1: 10F7 single chain antibody (scFv)
scFv: QVQLQQPGAELVKPGASVKLSCKASGYTFTSYWMHWVKQRPGQGLEWIGEIDPSDSYTNYNQKFKGKATLTVDKSSSTAYMQLSSLTSEDSAVYYCARGGTGDFHYAMDYWGQGTSVTVSSGGGGSDILMTQSPSSMSVSLGDTVSITCHASQGISSNIGWLQQKPGKSFKGLIYHGTNLEDGVPSRFSGSGSGADYSLTISSLESEDFADYYCVQYVQFPYTFGGGTKLEIKR
neutralization: dilution of 10F7 scFv (fold dilution): 64

Reference: patent US20080199851A1
